Measured values taken from publication PMC3293039, “Highly stable meso-diaminopimelate dehydrogenase from an Ureibacillus thermosphaericus strain A1 isolated from a Japanese compost: purification, characterization and sequencing” (AMB Express, 2011).

What was measured:
[1] = substrate: NC(=O)c1ccc[n+]([C@@H]2O[C@H](COP(=O)(O)OP(=O)(O)OC[C@H]3O[C@@H](n4cnc5c(N)ncnc54)[C@H](OP(=O)(O)O)[C@@H]3O)[C@@H](O)[C@H]2O)c1; assay: purified protein; assay type: biochemical, Ureibacillus thermosphaericus; conditions: oxidative deamination, meso-DAP as co-substrate, carbonate-KOH pH 10.5, 50 °C, varied: cofactor
[2] = substrate: N[C@H](CCC[C@H](N)C(=O)O)C(=O)O; assay: purified protein; assay type: biochemical, Ureibacillus thermosphaericus; conditions: oxidative deamination, NADP as co-substrate, carbonate-KOH pH 10.5, 50 °C

B1: meso-DAPDH (meso-diaminopimelate dehydrogenase) (Ureibacillus thermosphaericus) (protein)
chain: SKIRIGIVGYGNLGRGVEAAIQQNPDMELVAVFTRRDPKTVAVKSNVKVLHVDDAQSYKDEIDVMILCGGSATDLPEQGPYFAQYFNTIDSFDTHARIPDYFDAVNAAAEQSGKVAIISVGWDPGLFSLNRLLGEVVLPVGNTYTFWGKGVSQGHSDAIRRIQGVKNAVQYTIPIDEAVNRVRSGENPELSTREKHARECFVVLEEGADPAKVEHEIKTMPNYFDEYDTTVHFISEEELKQNHSGMPHGGFVIRSGKSDEGHKQIIEFSLNLESNPMFTSSALVAYARAAYRLSQNGDKGAKTVFDIPFGLLSPKSPEDLRKELL
notes: native, purified from U. thermosphaericus A1 cells; gene encodes 326 residues; homodimer about 80 kDa, subunit about 40 kDa; N-terminus SKIRIGIVGY (initiator Met removed)
Km [1]: 130 µM | Km [2]: 1600 µM
